Measured values reported in patent US20240132578A1.

How the values were obtained:
Assay in all cases: cell-based or functional assay
[1] = biological target: HIV-1 APV-17 envelope (Env) on pseudovirus (HIV-1)
[2] = biological target: HIV-1 CMU02 Env (pseudovirus) (HIV-1)
[3] = biological target: HIV-1 Env of isolate 92UG005 (clade D pseudovirus) (HIV-1)
[4] = biological target: HIV-1 Env of isolate CAAN.A2 (Acute), clade B (HIV-1)
[5] = biological target: HIV-1 Env of isolate MGRM-Chronic-B-003, clade B (HIV-1)
[6] = biological target: HIV-1 Env of isolate MGRM-D-018 (clade D pseudovirus) (HIV-1)
[7] = biological target: HIV-1 Env of isolate QH0692.42 (Acute), clade B (HIV-1)
[8] = biological target: HIV-1 Env of pseudovirus MGRM-F1-016 (clade F) (HIV-1)
[9] = biological target: HIV-1 Env of pseudovirus MGRM-F1-023 (clade F) (HIV-1)
[10] = biological target: HIV-1 Env of pseudovirus MGRM-G-015 (HIV-1)
[11] = biological target: HIV-1 MGRM-AE-003 Env (pseudovirus) (HIV-1)
[12] = biological target: HIV-1 MGRM-AG-011 Env (pseudovirus) (HIV-1)
[13] = biological target: HIV-1 NL43 envelope (Env) on pseudovirus (HIV-1)

Sequence of 1443_C16 (PG16) (TCN-116) (antibody) (VH): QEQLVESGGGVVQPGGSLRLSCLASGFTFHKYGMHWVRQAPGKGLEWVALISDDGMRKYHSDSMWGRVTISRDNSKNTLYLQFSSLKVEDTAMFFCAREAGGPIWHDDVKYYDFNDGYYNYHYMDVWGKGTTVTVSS
Sequence of 1443_C16 (PG16) (TCN-116) (antibody) (VL): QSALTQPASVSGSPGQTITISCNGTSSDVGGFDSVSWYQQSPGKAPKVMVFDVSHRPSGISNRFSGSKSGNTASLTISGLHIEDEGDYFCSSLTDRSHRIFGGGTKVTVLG

Substance | neutralization IC50 [1] [µg/mL] | IC50 (µg/ml), pseudovirus neutralization [2] [µg/mL] | IC50, pseudovirus neutralization [3] [µg/mL] | IC50 (µg/ml), pseudovirus neutralization [4] [µg/mL] | IC50 (µg/ml), pseudovirus neutralization [5] [µg/mL] | IC50, pseudovirus neutralization [6] [µg/mL] | IC50 (µg/ml), pseudovirus neutralization [7] [µg/mL] | IC50 [8] [µg/mL] | IC50 [9] [µg/mL] | IC50 (µg/ml), pseudovirus neutralization [10] [µg/mL] | IC50 (µg/ml), pseudovirus neutralization [11] [µg/mL] | IC50 (µg/ml), pseudovirus neutralization [12] [µg/mL] | neutralization IC50 [13] [µg/mL]
4E10 (antibody) | 5.1 | 0.72 | 7.46 | 17.9 | 3.5 | 3.9 | 12.7 | 7.61 | 0.44 | 1.07 | 0.34 | 1.36 | 4.95
1443_C16 (PG16) (TCN-116) (antibody) | > 50 | 43.6 | > 50 | 8.83 | 0.19 | 0.004 | > 50 | 1.12 | > 50 | 5.33 | 0.03 | 0.002 | < 0.0025
1495_C14 (PGC14) (antibody) | > 50 | > 50 | > 50 | > 50 | > 50 | > 50 | > 50 | > 50 | > 50 | > 50 | > 50 | > 50 | 0.373
b12 (antibody) | > 25 | 29.3 | > 50 | > 50 | > 50 | 1.39 | 0.73 | > 50 | > 50 | > 50 | > 50 | > 50 | 0.06
